Source: patent publication US20090062187A1, “Use of Hmgb1 for Wound Healing” (priority 2004, published 2009)
“Also recorded” adds a separate entry of the source.

Tests used:
diabetic CD1 mice = experiment: Wound closure after full-thickness excised wound in streptozotocin-diabetic CD1 mice; format: in vivo
Protocol: CD1 male mice were obtained from Charles River (Calco, LC, Italy). Mice were rendered diabetic by intraperitoneal injection of streptozotocin (Sigma-Aldrich, St Louis, Mo., USA) at 1.2 mg/30 g weight/day for 5 consecutive days. After 7 days, glycemia was measured and animals with glycemia of 200 to 400 mg/dl were selected for further studies. Mice were anesthetized with intraperitoneal injection of 2.5% Avertin (100% Avertin: 10 g of 2,2,2-tribromoethyl alcohol and 10 ml of tert-amyl alcohol, Sigma). Their dorsum was clipped free of hair and a full thickness wound of 3.5 mm diameter was created using a biopsy punch.
HMGB1 treatment was performed directly in the wound area by injecting 200 ng, 400 ng or 800 ng of purified protein (13) in 20 μl of saline solution at time immediately after wound. Control groups received 20 μl of saline solution in the wound. Glycyrrhyzin, GL (12) was administered topically in the wound area every two days from day 0 to day 14 after wound creation. The concentration used for each administration was 250 μg/mouse in 30 μl of PBS. Control mice received vehicle (PBS).
Animals were photographed at day 0, 3, 5, 6, 7, 10, and 14 after wound. Pictures were digitally processed and areas of wounds were calculated using the KS300 system (Zeiss, Jena GmbH, Germany). For each sample the percentage of wound closure was calculated as the ratio: […]
Where time 0 is the time immediately after the wound. The groups included 6 to 10 animals. Results are presented as mean±standard error. Statistical significance between two measurements was evaluated by unpaired Student's t test.

normal CD1 mice = experiment: Wound closure after full-thickness excised wound in normal CD1 mice; format: in vivo; conditions: for wound area reduced by % of the initial size / wound closure / healing rate vs vehicle: normal mice; for wound area reduced by % of the initial size: GL 250 μg/mouse topically every two days; for wound closure / healing rate vs vehicle: GL 250 μg/mouse topically in wound area
[1] = test system: keratinocytes (HaCat cell line); experiment: Chemotaxis assay (modified Boyden chamber), keratinocytes; format: cell-based, human; conditions: HMGB1 200 ng/ml
Protocol: (§1) FIG. 9: Effect of HMGB1 on human fibroblasts and keratinocytes migration. Normal (A) and diabetic (B) fibroblasts were obtained from human biopsies. 0.4×10^6 cells/ml were placed in upper compartment of the modified Boyden chambers. HMGB1 (200 ng/ml) or PDGF (15 ng/ml) was added to the lower compartment and incubated for 6 hrs at 37° C. (C) Hacat cells were obtained from ATCC and migration experiments performed as described in (A-B). After staining with Giemsa solution, migrated cells were quantified by counting nuclei in five random microscope fields (40×). The data are expressed as migration index (fold increase in number of migrated cells relative to number of migrated cells in the absence of HMGB1 or PDGF) and are mean±SD of at least 4 independent experiments performed in triplicate. Statistical significance was evaluated by unpaired Student's t test.
Hacat human cells were obtained according to (14). […]
(§2) The lower compartment of each chamber was filled with 28 μl DMEM with 0.1% BSA. […] Cells on five random fields on the lower face of the filter were counted at 40× magnification and migration index was calculated by dividing the number of migrated cells in the presence of chemoattractants by the cells migrated in response to DMEM with 0.1% BSA.

normal human fibroblasts = experiment: Chemotaxis assay (modified Boyden chamber), normal human fibroblasts; format: cell-based; conditions: HMGB1 200 ng/ml
Protocol: as §1, with “test. […]” for “test.”
as §2

[2] = test system: diabetic human fibroblasts; experiment: Chemotaxis assay (modified Boyden chamber), diabetic human fibroblasts; format: cell-based; conditions: HMGB1 200 ng/ml
Protocol: as §1, with “test. […]” for “test.”
as §2

CC1(C)[C@@H](O[C@H]2O[C@H](C(=O)O)[C@@H](O)[C@H](O)[C@H]2O[C@@H]2O[C@H](C(=O)O)[C@@H](O)[C@H](O)[C@H]2O)CC[C@]2(C)[C@H]3C(=O)C=C4[C@@H]5C[C@@](C)(C(=O)O)CC[C@]5(C)CC[C@@]4(C)[C@]3(C)CC[C@@H]12 [GL, Glycyrrhizin]
wound closure vs saline (diabetic CD1 mice; glycyrrhizin 250 μg in the wound area): No significant differences; also recorded: did not significantly modify wound closure | wound area reduced by % of the initial size (normal CD1 mice; day 3): 15±3.5% | wound area reduced by % of the initial size (normal CD1 mice; day 5): 38.7±6% | wound area reduced by % of the initial size (normal CD1 mice; day 6): 61.2±5.9% | wound area reduced by % of the initial size (normal CD1 mice; day 7): 73.3±4.5% | wound closure / healing rate vs vehicle (normal CD1 mice): slowed down wound closure | wound closure / healing rate vs vehicle (normal CD1 mice; listed as glycyrrhizin): significantly lower

B1: HMGB1 (protein, UniProt P09429 1-215, looked up)
High mobility group protein B1: MGKGDPKKPRGKMSSYAFFVQTCREEHKKKHPDASVNFSEFSKKCSERWKTMSAKEKGKFEDMAKADKARYEREMKTYIPPKGETKKKFKDPNAPKRPPSAFFLFCSEYRPKIKGEHPGLSIGDVAKKLGEMWNNTAADDKQPYEKKAAKLKEKYEKDIAAYRAKGKPDAAKKGVVKAEKSKKKKEEEEDEEDEEDEEEEEDEEDEDEEEDDDDE
notes: purified protein; cytokine released from monocyte-macrophage and necrotic cells, ligand of RAGE
chemotactic effect (migration) [1]: exhibited a chemotactic effect | chemotactic effect (migration) (normal human fibroblasts): exhibited a chemotactic effect | percentage of wound closure (diabetic CD1 mice; HMGB1 200 ng, day 3 after wounding): 47.5±15.8% | percentage of wound closure (diabetic CD1 mice; HMGB1 200 ng, day 5): 66.5±13% | percentage of wound closure (diabetic CD1 mice; HMGB1 200 ng, day 6): 72.2±9% | healing rate vs saline (diabetic CD1 mice; HMGB1 200 ng, p<0.03): significantly higher | complete wound closure evident by (diabetic CD1 mice; HMGB1 200 ng, same in saline group): ≤ 14 days | wound closure compared to lower dose (200 ng) (diabetic CD1 mice; HMGB1 400 ng in 20 ul, 3 days after wounding): larger wound closure | wound closure compared to dose of 200 ng (diabetic CD1 mice; HMGB1 800 ng): same effect | chemotactic effect (migration) [2]: exhibited a chemotactic effect | wound closure (normal CD1 mice; normal CD1 mice, HMGB1 200 ng in 20 μl injected in wound area immediately after wounding, vs saline): increased wound closure | percentage of wound closure (normal CD1 mice; normal CD1 mice, HMGB1 200 ng, day 3 after wounding): 30.5±8.5% | percent of wound closure vs saline (normal CD1 mice; normal CD1 mice, HMGB1 200 ng, day 5, p<0.03): significantly higher
